Our source for the Km values is PMC4782291, “Comparative characterization of two GDP-mannose dehydrogenase genes from Saccharina japonica (Laminariales, Phaeophyceae)” (BMC Plant Biology, 2016).

Substrate in series [1]: NC(=O)c1ccc[n+]([C@@H]2O[C@H](COP(=O)(O)OP(=O)(O)OC[C@H]3O[C@@H](n4cnc5c(N)ncnc54)[C@H](O)[C@@H]3O)[C@@H](O)[C@H]2O)c1
As to the kind of experiment: purified protein. It is filed as biochemical, Saccharina japonica. The conditions noted are these: 100 mM Tris-HCl, co-substrate GDP-mannose, MBP fusion, varied: cofactor.

Substrate in series [2]: Nc1nc2c(ncn2[C@@H]2O[C@H](COP(=O)(O)OP(=O)(O)O[C@H]3O[C@H](CO)[C@@H](O)[C@H](O)[C@@H]3O)[C@@H](O)[C@H]2O)c(=O)[nH]1
As to the kind of experiment: purified protein. The conditions noted are these: 100 mM Tris-HCl, co-substrate NAD+, MBP fusion. The class given is biochemical, Saccharina japonica.

Where [3] appears, read: optimal conditions (pH 8.0, 30 °C).
Setting [4] is: optimal conditions (pH 8.25, 20 °C).

B1: SjGMD1 (Saccharina japonica) (protein)
chain: MAEVMPKESIIQIGCGVVGGAYAKAYKHHGFSVRGFDVVPSIIEKMNDAGIPCCHPDDCPEDLNPEIVLLSVPTPLIKETQRLDMKYVWSTVPLVLKLVEQSTGPAPIFVIRSTVPPGMTKEWMAAVKEKATKPFHVAFQPEFLRAVSCEEDARAPWQVVFGYMTGEEEVKARMTNAFLEFVGRDESKLTVLNIAEAEFMKLAHNYANGLKISFANCIYGLANQLDPTIDAQKVLYLVSSTAECFLSRKYGLRVGAPYGGVCLPKDVPELTSLAPEGSVFREFLAGTGKINEWISGPEAKNMRVELDESPNWVSPDSLTT
For B1, the Km in series [1] (setting [3]) is 139 µM; in series [2] (setting [3]), 289 µM.

B2: SjGMD2 (Saccharina japonica) (protein)
chain: MSGKENVVQIGCGVVGGAYAKAYVHHGFSLTGFDVVPAIIGNMNEAGIKCFHPDDCPADLNADIVLLSVPTPLIKETQRLDMKYVWSTIPLVVKLVEQSSGLAPILVIRSTVPPGTTLKWEAEVRAKTDKPFKVAFQPEFLRAVSCEEDARAPWQIVFGCAKDADETRTRMSNCFLDFVGRDEAKLTVLNIAEAEFMKLVHNYANGLKISFANCIYGLAHELDPTIDAQKVLYLVSSTAECYLSRKYGLRVGAPYGGVCLPKDVPELTSLAPEGSVFREFLAGTGKINEWITNTPNLKVELTESPNWVSPSELII
On to B2, for which the Km in series [1] (setting [4]) was determined as 195 µM; in series [2] (setting [4]), 177 µM.

In general, Km refers to the substrate concentration at which the rate is half of its maximum.
